# Values quoted from earlier work, collected in publication PMC9796269 (British Journal of Clinical Pharmacology, 2022).
substance,measurement,value
"CNP‐22: endogenous C‐type natriuretic peptide form, susceptible to Neprilysin degradation",calculated half‐life (clearance in human plasma),2.6 min
